Measured values from paper PMC12827327.

How the values were obtained:
[1] = molecular target: actin filament (F-actin) of chicken skeletal α-actin, pointed end (chicken) (UniProt P68139)
[2] = molecular target: actin filament (F-actin) of chicken skeletal α-actin, pointed end (chicken) (UniProt P68139); remark: listed apart in the source
[3] = molecular target: actin filament (F-actin) of chicken skeletal α-actin, pointed end (chicken) (UniProt P68139); remark: listed apart in the source
[4] = molecular target: actin filament (F-actin) of chicken skeletal α-actin, pointed end (chicken) (UniProt P68139); test: pyrene-actin pointed end elongation assay; apparent KD from inhibition of pointed end elongation; 0.8 µM F-actin seeds with 8 nM capping protein incubated with the titrated protein, 2 µM G-actin (8% pyrene-labeled) added; 10 mM HEPES pH 7.4, 50 mM KCl, 1 mM MgCl2, 1 mM EGTA; hyperbolic fit of normalized rates
[5] = molecular target: actin filament (F-actin) of chicken skeletal α-actin, pointed end (chicken) (UniProt P68139); test: pyrene-actin dilution-induced pointed end depolymerization assay; apparent KD from inhibition of pointed end depolymerization; 10 µM CP-capped pyrene F-actin (20% labeled) incubated with the protein 15 min on ice, diluted to 0.5 µM; hyperbolic fit of normalized rate constants

Chain of human SH3BGRL (O75368 whole entry): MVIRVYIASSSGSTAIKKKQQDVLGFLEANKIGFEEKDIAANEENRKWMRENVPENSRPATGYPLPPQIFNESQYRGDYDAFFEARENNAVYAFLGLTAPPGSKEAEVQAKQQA
Chain of human SH3BGRL-3 (Q9H299 whole entry): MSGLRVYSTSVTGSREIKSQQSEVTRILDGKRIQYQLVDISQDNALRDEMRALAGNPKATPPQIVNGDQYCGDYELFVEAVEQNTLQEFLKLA
Chain of human tropomodulin-3 (Q9NYL9 whole entry): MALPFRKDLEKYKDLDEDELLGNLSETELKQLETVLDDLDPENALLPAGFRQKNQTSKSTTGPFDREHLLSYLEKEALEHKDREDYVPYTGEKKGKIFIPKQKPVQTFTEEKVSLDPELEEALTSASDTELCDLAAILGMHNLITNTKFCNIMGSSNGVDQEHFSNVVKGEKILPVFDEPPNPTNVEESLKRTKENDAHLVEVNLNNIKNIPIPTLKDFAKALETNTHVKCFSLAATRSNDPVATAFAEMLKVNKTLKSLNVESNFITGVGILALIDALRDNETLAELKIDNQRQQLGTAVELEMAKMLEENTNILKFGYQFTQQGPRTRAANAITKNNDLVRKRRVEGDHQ

human SH3BGRL (from UniProt O75368 1-114) (natural protein)
apparent rate of filament nucleation knuc, TIRFM, 1 µM ATTO-488 α-actin, 1-5 µM SH3BGRL (actin only: 5.1 × 10^-6) [1]: 2.22e-05 µm^-2 s^-1
pyrene-actin bulk polymerization from 2 µM α-actin (5% pyrene-labeled), increasing SH3BGRL: increase of the net polymerization rate [2]: < 3 fold
concentration required for half-maximal inhibition of pointed end depolymerization (K50%), CP-capped pyrene F-actin [3]: 7.6 µM
Kd [4]: 85 nM

human tropomodulin-3 (from UniProt Q9NYL9 1-352) (natural protein)
Kd [5]: 130 nM
Kd [4]: 180 nM

human SH3BGRL-3 (from UniProt Q9H299 1-93) (natural protein)
apparent rate of filament nucleation knuc, TIRFM, 1 µM ATTO-488 α-actin, 0.5-5 µM SH3BGRL-3 (actin only: 5.1 × 10^-6) [1]: 3.42e-05 µm^-2 s^-1
pyrene-actin bulk polymerization from 2 µM α-actin (5% pyrene-labeled), increasing SH3BGRL-3: increase of the net polymerization rate [2]: < 3 fold
concentration required for half-maximal inhibition of pointed end depolymerization (K50%), CP-capped pyrene F-actin [3]: 7.7 µM
Kd [4]: 31 nM
